Measurements taken from publication PMC4150794.

Columns and labels:
[1] = test system: RBPMS2-Nter (Homo sapiens); assay: EMSA; conditions: theoretical Kd, cooperative fit; 100 nM RNA; second complex at 5 uM; EMSA: 20 mM Tris pH 7.4, 100 mM KCl, 1 mM EDTA, 10 ug/ml BSA, 1 mM DTT, 1 U/ul RNaseOUT, 2% glycerol, 20 C 30 min, 10% gel in 1X TBE at 4 C; anisotropy: 20 mM …
Q6ZRY4 = assay: SEC-MALS; Superdex 75 10/300, 20 mM Tris-HCl pH 8, 300 mM NaCl; loaded at 2 mg/ml (RBPMS2-Nter) or 4 mg/ml (RBPMS2-Nter-L49E); monomer to dimer

Row | Substance | Kd [1] [nM] | percent of the protein in the monomer peak (Q6ZRY4)
1 | 161-nt NOGGIN RNA | 2250 | –
2 | RBPMS2-Nter-L49E (human RBPMS2 residues 27-117 with L49E) | – | The majority species (92.4%) has a Mw of 10.6 kDa, as would be expected for the monomer
